Results as given in patent US10000775B2, “Biosynthesis of 1-undecene and related terminal olefins” (The Regents of the University of California, priority 2013, dated 2018).

Tests used:
[1] = In vitro activity of PFL_4321 and PFL_0203 toward fatty acids with various chain lengths; format: biochemical; design: key to In vitro activity toward C8:0 / In vitro activity toward C10:0 / In vitro activity toward C12:0 / In vitro activity toward C14:0 / In vitro activity toward C16:0: ✓: indicates production of the corresponding 1-alkene from the indicated substrate; x: indicates failure to produce the corresponding 1-alkene from the indicated substrate
Description: A typical condition is as follows: 1 mL of reaction mixture contains 50 mM MES buffer (pH 6.2), 300 mM NaCl, 100 μM (NH4)2Fe(SO4)2, 1 mM ascorbic acid, 100 μM fatty acid substrate or analogs, and 10 μM enzyme. The reaction was performed in a sealed headspace vial at 30° C., initiated by adding lauric acid and quenched by injecting equal volume of 5 M NaOH. 1-Undecene production was analyzed and quantified by using the SPME-GCMS method. To determine the kinetic parameters of PFL_4321 on lauric acid, initial velocities at 1, 10, 20, 50, 100, and 150 μM of lauric acid were measured (25 mM lauric acid solution was prepared by adding 0.5% tergitol and heating at 65° C. for 10 min). The reactions were quenched at 2, 4, 6, 8, and 10 seconds, and the acquired turnover rates were fit to the Michaelis-Menten equation using GraphPad Prism to obtain kcat and Km. The kcat and Km of myristic acid and capric acid were determined similarly.
Unless otherwise noted, all experiments with PFL_0203 as described herein were performed using similar assays, procedures, and techniques as used in a given corresponding experiment as described in Example 1.
The fatty acid substrate specificity of PFL_0203 was investigated in a series of in vitro experiments. […] Thus, PFL_4321 and PFL_0203 share some overlap in suitable substrates; PFL_4321 is able to act on C10-C14 fatty acid substrates, and PFL_0203 is able to act on C10-C16 fatty acid substrates.

[2] = Enzyme recycling experiments; format: biochemical; conditions: for 1-undecene produced (activity) compared with the original PFL_4321: recycled after single turnover with EDTA, reconstituted with fresh Fe2+
Description: To recycle the PFL_4321, 1 mL of the oxygenated buffer solution (50 mM MES, pH 6.2, 100 mM NaCl) was mixed with 1 mL of an O2-free solution containing 50 mM MES buffer (pH 6.2), 100 mM NaCl, 200 μM PFL_4321, 1 mM (NH4)2Fe(SO4)2, 2 mM LA, so that the final mixture contained 50 mM MES buffer (pH 6.2), 100 mM NaCl, 100 μM PFL_4321, 0.5 mM (NH4)2Fe(SO4)2, and 1 mM LA. This original reaction was quenched by adding 10-fold excess of EDTA to iron. The mixture was desalted on a GE Disposable PD-10 column and incubated at 4° C. on a nutator for two hours to completely remove the residual 1-undecene in the solution. The recycled apo-PFL_4321 was concentrated by using Centrifugal Filter Units (Millipore) and subjected to a second enzymatic assay that contained 50 mM MES buffer (pH 6.2), 100 mM NaCl, 100 μM PFL_4321, 0.5 mM (NH4)2Fe(SO4)2, and 1 mM LA. To initiate the reaction, 100 μL of the oxygenated buffer solution (50 mM MES, pH 6.2, 100 mM NaCl) was mixed with 100 μL of an O2-free solution containing 50 mM MES buffer (pH 6.2), 100 mM NaCl, 200 μM PFL_4321, 1 mM (NH4)2Fe(SO4)2, 2 mM LA. The control group was set up under similar conditions except that the original apo-PFL_4321 which had not been used for any enzymatic reactions was used. The experimental group containing recycled PFL_4321 produced 80% of the 1-undecene compared with the control group that contained the original PFL_4321.

[3] = In vitro anaerobic enzymatic assays; format: biochemical
Description: FIG. 6 illustrates GC-MS detection of 1-undecene production by PFL_4321 in the aerobic/anaerobic assays. The anaerobic assay was performed by using the anaerobically purified enzyme and degassed reagents, adding glucose oxidase/glucose/catalase, and conducting the experiment in an anaerobic chamber with ppm O2<0.7. The control aerobic assay was performed by using a similar reaction mixture under ambient air conditions and omitting glucose oxidase.
All of the reagents were bubbled with nitrogen gas and equilibrated in the anaerobic chamber overnight before use. E. coli BL21 Gold (DE3, pZR60_HRV3c) was grown, harvested, and lysed as mentioned above. The insoluble fraction was removed by centrifugation, and the soluble proteins were incubated with 1 mL of Ni-NTA beads (Qiagen) on a nutator at 4° C. for 1 hr. The proteins were then moved into the anaerobic chamber, loaded onto a gravity flow column, washed with washing buffer (50 mM imidazole, 20 mM Tris, 300 mM NaCl, pH 8.5), and eluted with eluting buffer (300 mM imidazole, 20 mM Tris, 300 mM NaCl, pH 8.5). Purified proteins were exchanged into 20 mM Tris (pH 8.5) and 300 mM NaCl by passing through a desalting column (GE Disposable PD-10), and then concentrated using Amicon Centrifugal Filter Units. The protein solution was equilibrated in the anaerobic chamber on a Thermomixer at 4° C. overnight. […]

[4] = tested on: Saccharomyces cerevisiae S288c; test: Small-scale 1-alkene production in S. cerevisiae; format: cell-based; conditions: expression of PFL_4321, 30° C., 36 hours
Description: FIG. 25 illustrates GC-MS analysis of 1-undecene and nonene productions from Saccharomyces cerevisiae S288c (pESC_URA_PFL_4321). Saccharomyces cerevisiae S288c (pESC_URA_PFL_4321) was cultured in YPD media in sealed headspace vial at 30° C. for 36 hours before sampling using SPME-GCMS method.
PFL_4321 was PCR-amplified by using pESC-und-F/-R as primers (Table 1) and pZR59 as template, digested with BamH1/Sal1, and ligated into the pESC-URA vector to yield pESC-PFL_4321. S. cerevisiae was then transformed with pESC-PFL_4321 using the lithium acetate method outlined in the pESC-URA manual (Stratagene). Transformants were selected by […]. The cultures were grown in yeast-peptone media supplemented with 1% galactose in headspace GC vials at 30° C. for 36 hr before SPME-GCMS analysis.

B1: PFL_4321: protein of 261 amino acids from Pseudomonas fluorescens Pf-5; non-heme iron (II)-dependent enzyme converting medium-chain fatty acids into terminal olefins (protein, listed as Pseudomonas fluorescens)
chain: MIDTFSRTGPLMEAASYPAWTQQLIQDCSESKRRVVEHELYQRMRDNKLSAKVMRQYLIGGWPVVEQFALYMAQNLTKTRFARHPGEDMARRWLMRNIRVELNHADYWVHWSRAHGVTLEDLQAQQVPPELHALSHWCWHTSSADSLIVAIAATNYAIEGATGEWSALVCSNGIYAAAFPEEDRKRAMKWLKMHAQYDDAHPWEALEIIVTLAGLNPTKALQAELRQAICKSYDYMYLFLERCMQQEKTAVTRERLALAEG
For B1, the “In vitro activity toward C8:0” value ([1]; substrate C8:0) was “x”, the “In vitro activity toward C10:0” value ([1]; substrate C10:0) was “✓” and the “In vitro activity toward C12:0” value ([1]; substrate C12:0) was “✓”. The “In vitro activity toward C14:0” value ([1]; substrate C14:0) was “✓”, the “In vitro activity toward C16:0” value ([1]; substrate C16:0) was “x” and the “1-undecene production by recycled enzyme” value ([2]; EDTA omitted, desalted) was “failed to catalyze the reaction”. For the same molecule, the “1-undecene produced (activity) compared with the original PFL_4321” value ([2]; listed as apo-PFL_4321) was “over 80%”, the “1-undecene produced (activity) compared with the original PFL_4321” value ([2]; listed as recycled PFL_4321) was 80% and the “1-undecene production in anaerobic enzymatic assays” value ([3]; anaerobic) was “nearly abolished”. The “decrease of 1-undecene production in anaerobic enzymatic assays” value ([3]; anaerobic versus aerobic) was “more than 150 fold” and the “production of 1-alkenes in Saccharomyces cerevisiae” value [4] was “led to the production of 1-undecene and 1-nonene in comparable amounts”.
